Reference: patent publication US20250076311A1 (Chugai, published 2025)
Changes are numbered by the printed parent chain. Each block holds one binder with its values, some of them ahead of it.

Columns and labels:
[1] = molecular target: T1, cynomolgus monkey FcγRIIa2 extracellular domain, His-tagged (cynomolgus monkey); experiment: SPR Biacore, antibody captured, FcgR analyte
T1 construct: also called cyno FcγRIIa2; cynoFcgRIIa2; not shown: C-terminal His-tag
T1 chain: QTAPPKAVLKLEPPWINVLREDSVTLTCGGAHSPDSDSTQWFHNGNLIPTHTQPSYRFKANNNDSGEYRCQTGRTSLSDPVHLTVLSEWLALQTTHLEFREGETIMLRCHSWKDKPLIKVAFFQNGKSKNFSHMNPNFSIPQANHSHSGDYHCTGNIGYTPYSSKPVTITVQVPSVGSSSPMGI

[2] = molecular target: T2, human FcγRIIaR extracellular domain with C-terminal His-tag (human, UniProt P12318 34-217); experiment: SPR; KD of SG1 / KD of variant
T2 construct: also called human FcγRIIa (type R); FcgRIIaR
T2 chain: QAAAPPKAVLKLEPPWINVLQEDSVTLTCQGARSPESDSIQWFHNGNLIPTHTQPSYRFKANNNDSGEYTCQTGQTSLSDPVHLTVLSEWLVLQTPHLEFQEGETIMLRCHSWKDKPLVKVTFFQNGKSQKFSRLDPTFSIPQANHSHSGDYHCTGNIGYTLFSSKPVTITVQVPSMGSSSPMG
Method: (§1) The kinetic analysis of interactions between these antibodies and FcγR was carried out using BIACORE® T200 or BIACORE® 4000 (GE Healthcare). HBS-EP+ (GE Healthcare) was used as the running buffer, and the measurement temperature was set to 25° C. […] After the measurement, the antibody captured on the chip was washed off by allowing reaction with 10 mM glycine-HCl, pH1.5 and 25 mM NaOH so that the chip was regenerated and used repeatedly. The sensorgrams obtained as measurement results were analyzed by the 1:1 Langmuir binding model using the BIACORE® Evaluation Software to calculate the binding rate constant ka (L/mol/s) and dissociation rate constant kd (1/s), and the dissociation constant KD (mol/L) was calculated from these values. […] Regarding such interactions, KD values were calculated using the following 1:1 binding model described in BIACORE® T100 Software Handbook BR1006-48 Edition AE.

[3] = molecular target: T3, cynomolgus monkey FcγRIIIaS extracellular domain with C-terminal His-tag (cynomolgus monkey, UniProt Q8SPW2 21-206 at identity 1.00)); experiment: SPR; KD of SG1 / KD of variant
T3 construct: also called cyno FcγRIIIaS; FcgRIIIaS
T3 chain: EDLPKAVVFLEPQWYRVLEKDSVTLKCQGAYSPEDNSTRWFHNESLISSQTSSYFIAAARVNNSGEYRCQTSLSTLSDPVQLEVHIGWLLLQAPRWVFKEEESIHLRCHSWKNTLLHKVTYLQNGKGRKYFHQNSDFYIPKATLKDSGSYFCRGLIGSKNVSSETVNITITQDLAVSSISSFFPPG
Method: as §1

[4] = molecular target: T4, cynomolgus monkey FcγRIIb extracellular domain with C-terminal His-tag (cynomolgus monkey); experiment: SPR; KD of SG1 / KD of variant
T4 construct: also called cyno FcγRIIb; cynoFcγRIIb
T4 chain: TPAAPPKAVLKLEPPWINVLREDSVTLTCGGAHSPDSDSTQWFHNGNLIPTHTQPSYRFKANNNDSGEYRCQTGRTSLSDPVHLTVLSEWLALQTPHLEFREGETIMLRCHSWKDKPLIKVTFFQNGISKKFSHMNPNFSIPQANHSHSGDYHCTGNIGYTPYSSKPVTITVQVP
Method: as §1

[5] = molecular target: T5, human FcγRIIaR extracellular domain with C-terminal His-tag (human, UniProt P12318 34-217); experiment: SPR (Biacore), KD of SG1 divided by KD of variant
T5 construct: also called human FcgRIIaR; FcγRIIa (type R)
T5 chain: T2 chain
Method: as §1

[6] = molecular target: T6, cynomolgus monkey FcγRIIIaS extracellular domain with C-terminal His-tag (cynomolgus monkey, UniProt A3RFZ7 21-206 (rhesus entry)); experiment: SPR Biacore, antibody captured, FcgR analyte
T6 construct: also called cyno FcgRIIIaS; cynoFcγRIIIaS; not shown: His-tag added to C-terminus

[7] = molecular target: T7, human FcγRIIaH extracellular domain with C-terminal His-tag (human, UniProt P12318 34-217); experiment: SPR Biacore, antibody captured, FcgR analyte
T7 construct: also called human FcgRIIaH; FcγRIIa (type H); not shown: His-tag added to C-terminus
T7 sequence: T2 chain with R134H

[8] = molecular target: T8, cynomolgus monkey FcγRIIa1 extracellular domain with C-terminal His-tag (cynomolgus monkey); experiment: SPR Biacore, antibody captured, FcgR analyte
T8 construct: also called cyno FcgRIIa1; cynoFcγRIIa1; not shown: His-tag added to C-terminus
T8 chain: T1 chain with T95P, A121T, K127I, S128A, N130K, N135D, Q142R

[9] = molecular target: T9, cynomolgus monkey FcγRIIa3 extracellular domain with C-terminal His-tag (cynomolgus monkey); experiment: SPR Biacore, antibody captured, FcgR analyte
T9 construct: also called cyno FcgRIIa3; cynoFcγRIIa3; not shown: His-tag added to C-terminus
T9 chain: T1 chain with K127I, N130K, H133P, Q142R

[10] = molecular target: T10, human FcγRIIb extracellular domain with C-terminal His-tag (human, UniProt P31994 43-217); experiment: SPR Biacore, antibody captured, FcgR analyte
T10 construct: also called human FcgRIIb; not shown: His-tag added to C-terminus
T10 sequence: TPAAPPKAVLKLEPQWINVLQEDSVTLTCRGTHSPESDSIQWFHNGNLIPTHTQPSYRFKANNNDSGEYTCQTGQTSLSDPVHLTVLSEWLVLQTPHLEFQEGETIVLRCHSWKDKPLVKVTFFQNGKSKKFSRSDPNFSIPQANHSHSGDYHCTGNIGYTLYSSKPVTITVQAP

[11] = molecular target: T11, cynomolgus monkey FcγRIIb extracellular domain with C-terminal His-tag (cynomolgus monkey); experiment: SPR Biacore, antibody captured, FcgR analyte
T11 construct: also called cyno FcgRIIb; cynoFcγRIIb; not shown: His-tag added to C-terminus
T11 chain: T4 chain

[12] = molecular target: T12, human FcγRIIb extracellular domain, His-tagged (human, UniProt P31994 43-217); experiment: SPR Biacore, KD(SG1)/KD(variant)
T12 construct: also called FcgRIIb (human); not shown: C-terminal His-tag
T12 sequence: T10 sequence
Method: as §1

[13] = molecular target: T13, human FcγRIIaR extracellular domain with C-terminal His-tag (human, UniProt P12318 34-217); experiment: SPR (Biacore), antibody captured, FcgR analyte
T13 construct: also called human FcgRIIaR; FcγRIIa (type R)
T13 chain: T2 chain
Method: as §1

[14] = molecular target: T14, cynomolgus monkey FcγRIIa3 extracellular domain with C-terminal His-tag (cynomolgus monkey); experiment: SPR (Biacore), KD of SG1 / KD of variant
T14 construct: also called cyno FcgRIIa3; cynoFcγRIIa3
T14 chain: T1 chain with K127I, N130K, H133P, Q142R
Method: as §1

[15] = molecular target: T15, cynomolgus monkey FcγRIIa3 extracellular domain with C-terminal His-tag (cynomolgus monkey); experiment: SPR; KD of SG1 / KD of variant
T15 construct: also called cyno FcγRIIa3; FcgRIIa3
T15 chain: T1 chain with K127I, N130K, H133P, Q142R
Method: as §1

B1: M103205H795-MY006/M103202L889-SK1 (antibody, human IgG1, kappa, name in EU numbering)
heavy: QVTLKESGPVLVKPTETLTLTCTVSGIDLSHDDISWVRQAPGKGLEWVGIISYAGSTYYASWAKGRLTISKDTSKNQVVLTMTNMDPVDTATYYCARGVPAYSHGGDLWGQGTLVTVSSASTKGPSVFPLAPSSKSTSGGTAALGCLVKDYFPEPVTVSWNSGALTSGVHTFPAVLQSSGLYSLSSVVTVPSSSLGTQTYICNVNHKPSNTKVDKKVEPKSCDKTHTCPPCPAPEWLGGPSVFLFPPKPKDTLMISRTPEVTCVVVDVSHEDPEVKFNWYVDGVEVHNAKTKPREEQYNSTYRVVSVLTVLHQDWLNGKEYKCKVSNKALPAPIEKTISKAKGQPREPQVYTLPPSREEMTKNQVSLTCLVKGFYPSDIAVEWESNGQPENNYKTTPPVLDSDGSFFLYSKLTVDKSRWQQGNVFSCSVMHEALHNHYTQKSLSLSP
light: DIVMTQSPATLSLSPGERATLSCTSSQSVYHANWLSWFQQKPGQPPKLLIYWASTLAYGVPSRFSGSGSGTDFTLTISSLQPEDAATYYCAGGYGGGRYAFGQGTKVEIKRTVAAPSVFIFPPSDEQLKSGTASVVCLLNNFYPREAKVQWKVDNALQSGNSQESVTEQDSKDSTYSLSSTLTLSKADYEKHKVYACEVTHQGLSSPVTKSFNRGEC
notes: Substitution introduced into M103205H795-SG1; EU numbering
- Kd [1]: 1900 nM

B4: M103205H795-MY198/M103202L889-SK1 (antibody, human IgG1, kappa, name in EU numbering)
heavy: QVTLKESGPVLVKPTETLTLTCTVSGIDLSHDDISWVRQAPGKGLEWVGIISYAGSTYYASWAKGRLTISKDTSKNQVVLTMTNMDPVDTATYYCARGVPAYSHGGDLWGQGTLVTVSSASTKGPSVFPLAPSSKSTSGGTAALGCLVKDYFPEPVTVSWNSGALTSGVHTFPAVLQSSGLYSLSSVVTVPSSSLGTQTYICNVNHKPSNTKVDKKVEPKSCDKTHTCPPCPAPELLNGPVVFLFPPKPKDTLMISRTPEVTCVVVDVSDEDPEVKFNWYVDGVEVHNAKTKPREEQYNSTYRVVSVLTVLHQDWLNGKEYKCKVSNKALPKPIEKTISKAKGQPREPQVYTLPPSREEMTKNQVSLTCLVKGFYPSDIAVEWESNGQPENNYKTTPMVLDSDGSFFLYSKLTVDKSRWQQGNVFSCSVMHEALHNHYTQKSLSLSP
light: B1 light
notes: substitutions in EU numbering, introduced into M103205H795-SG1
- KD fold (SG1 = 1) [6]: 0.15 fold
- KD fold (SG1 = 1) [7]: 1.2 fold
- KD fold (SG1 = 1) [8]: 7.5 fold

B6: M103205H795-MY170/M103202L889-SK1 (antibody, human IgG1, kappa, name in EU numbering)
heavy: B4 heavy with V241S, D270E, K332A, M398E
light: B1 light
notes: EU numbering
- KD fold (SG1 = 1) [6]: 0.17 fold
- Kd [6]: 7900 nM
- Kd [9]: 1200 nM
- Kd [8]: 23000 nM
- KD fold (SG1 = 1) [10]: 2.5 fold

B8: M103205H795-MY173/M103202L889-SK1 (antibody, human IgG1, kappa, name in EU numbering)
heavy: B4 heavy with V241S, D270E, K332A, M398H
light: B1 light
notes: EU numbering
- KD fold (SG1 = 1) [6]: 0.12 fold
- Kd [6]: 3100 nM
- Kd [9]: 8000 nM
- Kd [11]: 730 nM
- KD fold (SG1 = 1) [8]: 1.5 fold
- Kd [10]: 1000 nM

B9: M103205H795-MY041/M103202L889-SK1 (antibody, human IgG1, kappa, name in EU numbering)
heavy: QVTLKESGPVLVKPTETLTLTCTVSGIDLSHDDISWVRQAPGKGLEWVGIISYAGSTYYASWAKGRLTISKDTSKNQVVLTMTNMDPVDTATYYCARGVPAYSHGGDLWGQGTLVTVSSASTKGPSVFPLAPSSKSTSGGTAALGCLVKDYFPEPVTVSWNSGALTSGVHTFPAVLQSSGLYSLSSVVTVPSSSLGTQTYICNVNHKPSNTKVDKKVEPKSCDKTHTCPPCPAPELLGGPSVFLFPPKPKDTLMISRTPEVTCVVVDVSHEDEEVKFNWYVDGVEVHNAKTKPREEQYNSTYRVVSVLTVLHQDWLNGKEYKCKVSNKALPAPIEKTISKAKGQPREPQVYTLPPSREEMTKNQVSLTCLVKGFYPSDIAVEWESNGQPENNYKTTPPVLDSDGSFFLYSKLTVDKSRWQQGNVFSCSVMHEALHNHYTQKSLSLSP
light: B1 light
notes: as for B1
- KD fold (SG1 = 1) [12]: 1.5 fold

B10: M103205H795-MY180/M103202L889-SK1 (antibody, human IgG1, kappa, name in EU numbering)
heavy: B4 heavy with V241S, D270E, K332A, M398S
light: B1 light
notes: EU numbering
- KD fold (SG1 = 1) [6]: 0.17 fold
- Kd [6]: 3100 nM
- Kd [9]: 1200 nM
- KD fold (SG1 = 1) [8]: 1.7 fold
- Kd [10]: 1900 nM

B12: M103205H795-MY169/M103202L889-SK1 (antibody, human IgG1, kappa, name in EU numbering)
heavy: B4 heavy with V241S, D270E, K332A, M398D
light: B1 light
notes: EU numbering
- KD fold (SG1 = 1) [6]: 0.1 fold
- Kd [6]: 3500 nM
- Kd [8]: 23000 nM

Results, then the binder that gave them:

- KD fold (SG1 = 1) [2]: 4.2 fold
- KD fold (SG1 = 1) [3]: 0.3 fold
- KD fold (SG1 = 1) [4]: 2.5 fold
B2: M103205H795-MY309 (heavy chain) with M103202L889-SK1 (light chain) (antibody, human IgG1, kappa, name in EU numbering)
heavy: B4 heavy with N238T, V241S, D270E
light: B1 light
notes: Substitutions introduced into M103205H795-SG1; positions in EU numbering

- KD fold (SG1 = 1) [5]: 6.9 fold
B3: M103205H795-MY525 / M103202L889-SK1 (antibody, human IgG1, kappa, name in EU numbering)
heavy: B4 heavy with A233T, N238T, M398P
light: B1 light

- KD fold (SG1 = 1) [3]: 0.3 fold
- KD fold (SG1 = 1) [4]: 5.6 fold
B5: M103205H795-MY276 (heavy chain) with M103202L889-SK1 (light chain) (antibody, human IgG1, kappa, name in EU numbering)
heavy: B4 heavy with N238I, V241S, M398K
light: B1 light
notes: as for B2

- KD fold (SG1 = 1) [6]: 0.09 fold
- KD fold (SG1 = 1) [8]: 3.7 fold
B7: M103205H795-MY202/M103202L889-SK1 (antibody, human IgG1, kappa, name in EU numbering)
heavy: B4 heavy with M398P
light: B1 light
notes: as for B4

- Kd [13]: 640 nM
- KD fold (SG1 = 1) [14]: 2.5 fold
B11: M103205H795-MY451/M103202L889-SK1 (antibody, human IgG1, kappa)
heavy: B4 heavy with P234N, N238T, V241S, M398P
light: B1 light
notes: Substitutions in EU numbering on SG1

- KD fold (SG1 = 1) [15]: 0.8 fold
- KD fold (SG1 = 1) [2]: 1 fold
- KD fold (SG1 = 1) [3]: 0.15 fold
- KD fold (SG1 = 1) [4]: 0.9 fold
B13: M103205H795-MY316 (heavy chain) with M103202L889-SK1 (light chain) (antibody, human IgG1, kappa, name in EU numbering)
heavy: B4 heavy with N238L, V241S, D270E, Q297L, M398K
light: B1 light
notes: as for B2
